The record followed here is patent US11091559B2, “Anti-ALK antibodies and methods for use thereof” (Celldex Therapeutics, Inc., priority 2015, dated 2021).

Data set [1] has as its system ALK (total protein levels in NB1 cells). Nature of the data set: ALK turnover (total protein levels) by Western blot, 24 hour treatment of NB1 cells. Details: key: − none; + weak; ++ moderate; +++ strong. It counts as cell-based, human. The text has this: FIG. 5 depicts a Western blot of a panel of ALK antibodies.
See also Table 18, below.
In general terms: In western blotting, separated proteins are transferred to a membrane and probed.

In data set [2] the target is C-terminal region of human ALK ECD (T637-S1038) (Homo sapiens, UniProt Q9UM73). Description: Competitive binding assay (epitope binning) by flow cytometry. As to conditions: antibodies to the C-terminal region. A digest of the protocol: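 Pairwise flow cytometry competition on ALK-expressing cells: cells pre-incubated with one unlabeled antibody, then probed with a second, fluorescently labeled antibody. Antibodies able to bind the C-terminal ECD simultaneously were assigned to different bins, i.e. separate epitope classes.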
For orientation: A flow cytometer gives signals particle by particle.

Data set [3] relates to NB1 cells. Nature of the data set: NB1 cell morphology. It is filed as cell-based, human. As to conditions: NB1 cells treated with antibody. The text has this:
By contrast, treatment with Ab324, an ALK agonist, caused the cells to spread out.

For data set [4], the system named is patient-derived (PDX) neuroblastoma ALK F1174L tumor. Nature of the data set: Patient-derived (PDX) neuroblastoma ALK F1174L tumor model. The conditions noted are these: two weekly intraperitoneal doses at 10 mg/kg, two-week period, in comparison with control IgG1. It is filed as in vivo, mouse. The text has this:
(§1) FIGS. 8A-B depict the in vivo antitumor activity of the Ab326 anti-ALK antibody in a patient-derived (PDX) neuroblastoma ALK F1174L tumor model compared with control IgG1 (A) and a western blot of tumor homogenates harvested from the patient-derived tumor model showing relative levels of total ALK and phosphorylated ALK in Ab326-treated and control IgG1-treated mice (B). GAPDH is included in the western blot of FIG. 8B as a control for protein level.
Patient-derived (PDX) neuroblastoma tumor model mice were produced. […] Mice received two weekly intraperitoneal doses of Ab326 or a control IgG1 at 10 mg/kg.
(§2) The effect of Ab326, generated in Example 1, on the patient-derived NB tumor mouse model was consistent with its inhibitory effect on phosphorylation of ALK and downstream signaling (FIG. 8A). Tumor volume was reduced over a two-week period in comparison with a control IgG1 antibody.

The subject of data set [5] is NB1 cells. Nature of the data set: Crizotinib titration and co-titration with ALK antibodies, killing of NB1 cells. It counts as cell-based, human. As to conditions: co-titration of crizotinib with the antibody.
Data set [6] addresses murine ALK (purified mouse ALK antigen) (Mus musculus, UniProt P97793). Description: Mouse ALK cross-reactivity, solid-state ELISA. It is filed as binding. Details: key: − none; + weak; ++ moderate; +++ strong. As to conditions: cross-reactivity with murine ALK. On the procedure:
Purified mAbs were evaluated for their ability to bind murine ALK by solid-state ELISA, or flow cytometry on Neuro-2a cells that express low levels of endogenous murine ALK. […]
A general note: ELISA stands for enzyme-linked immunosorbent assay.

For data set [7], the system named is ALK (basal phosphorylation in NB1 cells). Nature of the data set: Western blot of ALK phosphorylation in NB1 cells. It counts as cell-based, human.
Data set [8] concerns the target T1, total ALK and phosphorylated ALK in tumor homogenates (Homo sapiens, UniProt Q9UM73, F1174L).
T1 construct: Western blot analysis of homogenates of tumors harvested 72 hours after the second dose; from tissue; host or cells: patient-derived (PDX) neuroblastoma tumors grown in mice
Nature of the data set: Western blot of tumor homogenates from the PDX model. It counts as in vivo, mouse. The conditions noted are these: tumors harvested 72 hours after the second dose, vs control IgG1.
Description: as §1, §2

Data set [9] relates to ALK on the surface of NB1 cells. Nature of the data set: KD determination by flow cytometry on NB1 cells. It is filed as binding. As to conditions: NB1 (human) cells, FACS, mean. On the procedure:
FIG. 3 depicts the apparent affinities (KD) of ALK antibodies for ALK expression on the surface of NB1 cells. KD was determined by flow cytometry. Titration of each antibody on NB1 cells for 2-4 hours at 4° C. was followed by incubation with a fluorescently-labeled secondary antibody. The normalized mean fluorescent intensity […] shown as “% Max binding” was plotted as a function of antibody concentration.
Flow cytometry was utilized to measure the affinity at steady state (KD) with which different ALK antibodies bind to ALK on the surface of NB1 cells (FIG. 3). Titration of each antibody on NB1 cells for 2-4 hours at 4° C. was followed by incubation with a fluorescently-labeled secondary antibody. The normalized mean fluorescent intensity (MFI) shown as “% Max binding” was plotted as a function of antibody concentration. The data were fit to a one site binding isotherm using GraphPad Prism, from which affinity values were derived.
(§3) Amino acid residues that differ between rat ALK and mouse ALK are boxed. KD values for both NB1 (human) cells and Neuro2a (mouse) cells were also determined.

Data set [10] deals with T2, cell surface mALK on Neuro2a cells (Mus musculus, UniProt P97793).
T2 construct: Neuro-2a cells that express low levels of endogenous murine ALK; endogenous in cells; host or cells: Neuro-2a (Neuro2a) mouse neuroblastoma cells
Description: KD of humanized antibodies on Neuro2a (mouse) cells. It is filed as binding. The conditions noted are these: FACS, mean. The method, then:
as §3

T1 sequence (Q9UM73 19-1620 F1174L): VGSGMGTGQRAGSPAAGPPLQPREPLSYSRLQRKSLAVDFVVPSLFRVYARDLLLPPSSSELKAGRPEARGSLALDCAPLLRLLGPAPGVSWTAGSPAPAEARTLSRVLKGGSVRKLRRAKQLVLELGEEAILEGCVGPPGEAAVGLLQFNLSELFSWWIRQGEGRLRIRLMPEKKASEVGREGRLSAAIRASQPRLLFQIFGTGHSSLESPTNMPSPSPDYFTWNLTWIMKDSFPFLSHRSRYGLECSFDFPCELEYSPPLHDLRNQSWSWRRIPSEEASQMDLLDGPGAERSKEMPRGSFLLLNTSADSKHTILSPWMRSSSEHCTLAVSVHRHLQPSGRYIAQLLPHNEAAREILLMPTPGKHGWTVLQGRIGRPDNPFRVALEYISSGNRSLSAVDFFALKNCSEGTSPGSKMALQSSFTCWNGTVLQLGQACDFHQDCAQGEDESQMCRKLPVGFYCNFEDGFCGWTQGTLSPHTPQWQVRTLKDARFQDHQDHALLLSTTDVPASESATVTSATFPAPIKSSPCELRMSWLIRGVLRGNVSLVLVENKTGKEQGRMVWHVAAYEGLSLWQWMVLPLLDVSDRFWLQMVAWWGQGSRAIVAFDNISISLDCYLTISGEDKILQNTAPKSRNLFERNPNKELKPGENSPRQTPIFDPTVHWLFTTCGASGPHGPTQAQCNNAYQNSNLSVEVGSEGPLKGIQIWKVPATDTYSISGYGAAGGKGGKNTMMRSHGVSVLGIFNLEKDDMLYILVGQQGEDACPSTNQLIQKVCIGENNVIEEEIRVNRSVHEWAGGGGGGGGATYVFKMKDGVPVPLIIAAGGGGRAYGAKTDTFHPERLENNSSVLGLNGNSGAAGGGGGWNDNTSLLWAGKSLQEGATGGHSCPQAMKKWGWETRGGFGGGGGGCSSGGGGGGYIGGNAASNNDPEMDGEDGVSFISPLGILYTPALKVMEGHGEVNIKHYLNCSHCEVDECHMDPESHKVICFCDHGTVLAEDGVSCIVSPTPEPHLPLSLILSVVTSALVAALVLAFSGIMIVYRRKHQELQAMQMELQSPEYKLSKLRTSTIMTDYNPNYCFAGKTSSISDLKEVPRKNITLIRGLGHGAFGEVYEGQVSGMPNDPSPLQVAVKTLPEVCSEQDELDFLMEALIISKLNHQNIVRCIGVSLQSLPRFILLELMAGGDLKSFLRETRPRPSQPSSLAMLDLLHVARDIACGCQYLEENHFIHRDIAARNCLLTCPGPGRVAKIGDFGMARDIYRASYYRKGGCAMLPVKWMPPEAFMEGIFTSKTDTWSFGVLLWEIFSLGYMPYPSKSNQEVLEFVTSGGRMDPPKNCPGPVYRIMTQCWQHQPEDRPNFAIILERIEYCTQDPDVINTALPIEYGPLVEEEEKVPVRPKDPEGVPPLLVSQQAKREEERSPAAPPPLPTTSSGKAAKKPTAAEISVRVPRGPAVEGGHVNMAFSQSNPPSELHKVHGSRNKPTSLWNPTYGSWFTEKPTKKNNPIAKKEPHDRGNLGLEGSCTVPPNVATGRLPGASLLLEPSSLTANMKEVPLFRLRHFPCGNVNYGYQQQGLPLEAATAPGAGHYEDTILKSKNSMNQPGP
T2 sequence (P97793 19-1621): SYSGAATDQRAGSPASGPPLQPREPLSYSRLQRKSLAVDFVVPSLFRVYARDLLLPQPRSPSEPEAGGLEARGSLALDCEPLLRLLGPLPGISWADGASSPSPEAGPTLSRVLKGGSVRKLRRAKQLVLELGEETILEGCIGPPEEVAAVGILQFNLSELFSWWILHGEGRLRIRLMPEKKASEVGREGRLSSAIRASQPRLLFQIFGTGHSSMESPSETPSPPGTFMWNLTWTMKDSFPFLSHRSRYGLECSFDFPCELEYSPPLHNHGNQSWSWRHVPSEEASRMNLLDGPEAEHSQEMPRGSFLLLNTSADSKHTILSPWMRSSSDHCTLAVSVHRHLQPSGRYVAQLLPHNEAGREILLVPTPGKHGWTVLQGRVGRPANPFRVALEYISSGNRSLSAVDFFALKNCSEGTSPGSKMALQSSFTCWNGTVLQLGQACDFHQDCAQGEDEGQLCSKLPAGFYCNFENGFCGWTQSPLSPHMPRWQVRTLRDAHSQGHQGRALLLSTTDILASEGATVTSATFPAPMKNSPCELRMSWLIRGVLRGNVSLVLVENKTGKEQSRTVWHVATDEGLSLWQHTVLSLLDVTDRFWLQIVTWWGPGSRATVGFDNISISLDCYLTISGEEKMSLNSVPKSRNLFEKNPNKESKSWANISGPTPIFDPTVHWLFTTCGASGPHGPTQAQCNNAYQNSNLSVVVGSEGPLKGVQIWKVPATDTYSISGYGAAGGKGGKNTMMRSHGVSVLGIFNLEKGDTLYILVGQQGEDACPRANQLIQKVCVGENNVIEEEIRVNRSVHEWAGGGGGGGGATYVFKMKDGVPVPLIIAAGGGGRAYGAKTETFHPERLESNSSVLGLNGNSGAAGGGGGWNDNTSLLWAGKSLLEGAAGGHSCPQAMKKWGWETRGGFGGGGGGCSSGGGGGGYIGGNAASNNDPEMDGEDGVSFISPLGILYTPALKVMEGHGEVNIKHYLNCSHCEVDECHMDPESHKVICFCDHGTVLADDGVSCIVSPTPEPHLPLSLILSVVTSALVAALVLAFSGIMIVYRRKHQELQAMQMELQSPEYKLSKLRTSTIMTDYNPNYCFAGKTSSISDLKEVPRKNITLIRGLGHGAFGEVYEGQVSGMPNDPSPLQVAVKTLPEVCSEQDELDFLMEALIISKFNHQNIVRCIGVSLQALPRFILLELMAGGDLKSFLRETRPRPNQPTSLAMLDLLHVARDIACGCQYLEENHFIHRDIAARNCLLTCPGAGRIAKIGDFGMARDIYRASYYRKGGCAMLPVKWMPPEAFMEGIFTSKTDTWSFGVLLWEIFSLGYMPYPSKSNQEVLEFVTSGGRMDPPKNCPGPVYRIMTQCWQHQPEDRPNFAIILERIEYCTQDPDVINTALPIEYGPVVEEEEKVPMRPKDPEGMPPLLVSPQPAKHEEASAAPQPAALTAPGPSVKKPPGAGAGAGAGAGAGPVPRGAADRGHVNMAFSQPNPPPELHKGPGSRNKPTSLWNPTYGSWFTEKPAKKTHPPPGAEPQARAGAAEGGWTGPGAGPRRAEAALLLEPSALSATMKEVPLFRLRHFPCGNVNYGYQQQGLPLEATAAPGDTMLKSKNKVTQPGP
Chain of murine ALK (purified mouse ALK antigen) (P97793 19-1042 limits assumed): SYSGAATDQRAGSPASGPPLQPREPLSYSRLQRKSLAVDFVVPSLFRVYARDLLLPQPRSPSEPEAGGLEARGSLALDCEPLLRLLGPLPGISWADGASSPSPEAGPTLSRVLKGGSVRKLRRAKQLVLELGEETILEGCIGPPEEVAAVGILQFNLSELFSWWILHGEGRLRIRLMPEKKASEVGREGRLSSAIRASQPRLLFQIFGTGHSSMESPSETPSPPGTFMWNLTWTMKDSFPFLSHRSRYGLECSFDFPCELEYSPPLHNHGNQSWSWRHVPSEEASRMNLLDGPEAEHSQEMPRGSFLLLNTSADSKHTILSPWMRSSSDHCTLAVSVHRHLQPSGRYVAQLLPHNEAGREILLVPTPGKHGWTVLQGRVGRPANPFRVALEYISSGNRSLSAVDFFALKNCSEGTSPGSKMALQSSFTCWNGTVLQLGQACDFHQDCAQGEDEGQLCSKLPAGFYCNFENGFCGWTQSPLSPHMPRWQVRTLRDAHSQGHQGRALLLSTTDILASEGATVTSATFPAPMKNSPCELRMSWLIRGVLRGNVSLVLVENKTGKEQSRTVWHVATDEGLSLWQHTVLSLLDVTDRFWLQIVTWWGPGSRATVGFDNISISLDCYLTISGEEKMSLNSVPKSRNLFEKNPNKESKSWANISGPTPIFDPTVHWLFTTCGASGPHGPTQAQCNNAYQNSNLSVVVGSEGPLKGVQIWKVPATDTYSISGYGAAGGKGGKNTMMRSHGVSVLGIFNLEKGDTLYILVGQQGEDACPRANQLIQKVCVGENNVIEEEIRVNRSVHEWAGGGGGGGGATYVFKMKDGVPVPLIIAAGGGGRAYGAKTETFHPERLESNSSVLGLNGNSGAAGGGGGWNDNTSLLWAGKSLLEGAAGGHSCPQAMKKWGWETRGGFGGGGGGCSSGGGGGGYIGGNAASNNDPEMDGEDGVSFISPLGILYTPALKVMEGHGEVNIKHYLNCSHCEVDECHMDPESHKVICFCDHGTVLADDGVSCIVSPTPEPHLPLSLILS
Chain of C-terminal region of human ALK ECD (T637-S1038) (Q9UM73 19-1620): as the sequence (Q9UM73 19-1620 F1174L) above, with L1156F counted along it

B1: Ab326: anti-ALK monoclonal antibody; VL SEQ ID NO: 407, VH SEQ ID NO: 408 (antibody, V domains shown)
VH: QVQLQQSGAELAKPGASVKLSCKASGYTFTSYWMHWVKQRPGQGLEWIGYIKPSSGYTKYNQKFKDKATLTADKSSSTAYMQLSSLTYEDSAVYYCARDYYGSSSWFAYWGQGTLVTVSA
VL: DIVMTQSQRFMSTSVGDRVSVTCKASQNVGTNVAWYQQKPGQSPKALIYSASYRYSGVPDRFTGSGSGTDFTLTISNVQSEDLAEYFCQQYNSYPYMYTFGGGTKLEIKR
modifications: VH domain - Ab326; VL domain - Ab326
On to B1, for which, in data set [1], the ALK turnover result is given as “−”. In data set [2], the “Bin/Domain (bin)” value is 2. For the same molecule, the NB1 cell morphology result in the data set with NB1 cells [3] is “rounded morphology”. For the same molecule, the tumor volume result in data set [4] is recorded as “reduced”. Besides, the “effect on the anti-proliferative effect of crizotinib” value in the data set on NB1 cells [5] is on record as “enhanced”. The “mouse ALK binding” value in [6] is listed as “+++”. Also, in data set [7], the “effect on ALK activity (ALK inhibitory or ALK agonistic antibody)” value is reported as “inhibitory”. Besides, the ALK phosphorylation entry in data set [7] (effect in words) was “inhibitor”. For the same molecule, in data set [8], the “phosphorylated ALK in tumor homogenates” value is listed as “reduction” and the “total ALK in tumor homogenates” value is recorded as “reduction”. Further, binding in data set [9] was characterised by a dissociation constant (Kd) of 0.94 nM. Also, in data set [10], the Kd (in general, the concentration at which binding is half-saturated) was 0.58 nM.
